# B1: Homeobox protein Meis2 (Homo sapiens), O14770-4 (parent)
# chain: MAQRYDELPHYGGMDGVGVPASMYGDPHAPRPIPPVHHLNHGPPLHATQHYGAHAPHPNVMPASMGSAVNDALKRDKDAIYGHPLFPLLALVFEKCELATCTPREPGVAGGDVCSSDSFNEDIAVFAKQVRAEKPLFSSNPELDNLMIQAIQVLRFHLLELEKVHELCDNFCHRYISCLKGKMPIDLVIDERDGSSKSDHEELSGSSTNLADHNPSSWRDHDDATSTHSAGTPGPSSGGHASQSGDNSSEQGDGLDNSVASPGTGDDDDPDKDKKRQKKRGIFPKVATNIMRAWLFQHLTHPYPSEEQKKQLAQDTGLTILQVNNWFINARRRIVQPMIDQSNRAVSQGAAYSPEGQPMGSFVLDGQQHMGIRPAGLQSMPGDYVSQGGPMGMSMAQPSYTPPQMTPHPTQLRHGPPMHSYLPSHPHHPAMMMHGGPPTHPGMTMSAQSPTMLNSVDPNVGGQVMDIHAQ
# partner: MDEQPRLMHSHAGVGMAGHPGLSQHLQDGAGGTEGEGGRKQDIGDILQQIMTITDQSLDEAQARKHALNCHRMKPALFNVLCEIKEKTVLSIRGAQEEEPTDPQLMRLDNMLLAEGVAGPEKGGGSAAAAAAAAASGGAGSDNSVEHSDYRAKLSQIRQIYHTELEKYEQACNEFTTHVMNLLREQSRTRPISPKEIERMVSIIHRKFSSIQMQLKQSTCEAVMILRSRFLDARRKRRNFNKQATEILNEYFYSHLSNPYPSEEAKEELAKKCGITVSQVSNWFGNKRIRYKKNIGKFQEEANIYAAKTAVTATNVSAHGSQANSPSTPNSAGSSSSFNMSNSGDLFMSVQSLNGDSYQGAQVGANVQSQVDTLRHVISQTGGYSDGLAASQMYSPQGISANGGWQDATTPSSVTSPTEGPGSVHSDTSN
# Variants of: B1
# Conditions: with pbx1_human PBX1, P40424
row,effect of a mutation on the interaction,Variant
1,decreasing interaction,MAQRYDELPHYGGMDGVGVPASMYGDPHAPRPIPPVHHLNHGPPLHATQHYGAHAPHPNVMPASMGSAVNDALKRDKDAIYGHPLFPLLALVFEKGELATCTPREPGVAGGDVCSSDSFNEDIAVFAKQVRAEKPLFSSNPELDNLMIQAIQVLRFHLLELEKVHELCDNFCHRYISCLKGKMPIDLVIDERDGSSKSDHEELSGSSTNLADHNPSSWRDHDDATSTHSAGTPGPSSGGHASQSGDNSSEQGDGLDNSVASPGTGDDDDPDKDKKRQKKRGIFPKVATNIMRAWLFQHLTHPYPSEEQKKQLAQDTGLTILQVNNWFINARRRIVQPMIDQSNRAVSQGAAYSPEGQPMGSFVLDGQQHMGIRPAGLQSMPGDYVSQGGPMGMSMAQPSYTPPQMTPHPTQLRHGPPMHSYLPSHPHHPAMMMHGGPPTHPGMTMSAQSPTMLNSVDPNVGGQVMDIHAQ [C96G]
2,decreasing interaction,MAQRYDELPHYGGMDGVGVPASMYGDPHAPRPIPPVHHLNHGPPLHATQHYGAHAPHPNVMPASMGSAVNDALKRDKDAIYGHPLFPLLALVFENCELATCTPREPGVAGGDVCSSDSFNEDIAVFAKQVRAEKPLFSSNPELDNLMIQAIQVLRFHLLELEKVHELCDNFCHRYISCLKGKMPIDLVIDERDGSSKSDHEELSGSSTNLADHNPSSWRDHDDATSTHSAGTPGPSSGGHASQSGDNSSEQGDGLDNSVASPGTGDDDDPDKDKKRQKKRGIFPKVATNIMRAWLFQHLTHPYPSEEQKKQLAQDTGLTILQVNNWFINARRRIVQPMIDQSNRAVSQGAAYSPEGQPMGSFVLDGQQHMGIRPAGLQSMPGDYVSQGGPMGMSMAQPSYTPPQMTPHPTQLRHGPPMHSYLPSHPHHPAMMMHGGPPTHPGMTMSAQSPTMLNSVDPNVGGQVMDIHAQ [K95N]

# Variants of: B1
# Conditions: with pbx1_human PBX1, P40424
# Remark: another data set of the same source
row,effect of a mutation on the interaction,Variant
1,decreasing interaction,MAQRYDELPHYGGMDGVGVPASMYGDPHAPRPIPPVHHLNHGPPLHATQHYGAHAPHPNVMPASMGSAVNDALKRDKDAIYGHPLFPLLALVFEKCELATCTPREPGVAGGDVCSSDSFNEDIAVFAKQVRAEKPLFSSNPELDNLMIQAIQVLRFHLLELEAVHELCDNFCHRYISCLKGKMPIDLVIDERDGSSKSDHEELSGSSTNLADHNPSSWRDHDDATSTHSAGTPGPSSGGHASQSGDNSSEQGDGLDNSVASPGTGDDDDPDKDKKRQKKRGIFPKVATNIMRAWLFQHLTHPYPSEEQKKQLAQDTGLTILQVNNWFINARRRIVQPMIDQSNRAVSQGAAYSPEGQPMGSFVLDGQQHMGIRPAGLQSMPGDYVSQGGPMGMSMAQPSYTPPQMTPHPTQLRHGPPMHSYLPSHPHHPAMMMHGGPPTHPGMTMSAQSPTMLNSVDPNVGGQVMDIHAQ [K163A]
2,decreasing interaction,MAQRYDELPHYGGMDGVGVPASMYGDPHAPRPIPPVHHLNHGPPLHATQHYGAHAPHPNVMPASMGSAVNDALKRDKDAIYGHPLFPLLALVFEKCELATCTPREPGVAGGDVCSSDSFNEDIAVFAKQVRAEKPLFSSNPELDNLMIQAIQVLRFHLLALEKVHELCDNFCHRYISCLKGKMPIDLVIDERDGSSKSDHEELSGSSTNLADHNPSSWRDHDDATSTHSAGTPGPSSGGHASQSGDNSSEQGDGLDNSVASPGTGDDDDPDKDKKRQKKRGIFPKVATNIMRAWLFQHLTHPYPSEEQKKQLAQDTGLTILQVNNWFINARRRIVQPMIDQSNRAVSQGAAYSPEGQPMGSFVLDGQQHMGIRPAGLQSMPGDYVSQGGPMGMSMAQPSYTPPQMTPHPTQLRHGPPMHSYLPSHPHHPAMMMHGGPPTHPGMTMSAQSPTMLNSVDPNVGGQVMDIHAQ [E160A]

# Variants of: B1
# Conditions: with pbx1_human PBX1, P40424
# Remark: another data set of the same source
row,effect of a mutation on the interaction,Variant
1,decreasing interaction,MAQRYDELPHYGGMDGVGVPASMYGDPHAPRPIPPVHHLNHGPPLHATQHYGAHAPHPNVMPASMGSAVNDALKRDKDAIYGHPLFPLLALVFEKCELATCTPREPGVAGGDVCSSDSFNEDIAVFAKQVRAEKPLFSSNPELDNLMIQAAQVLRFHLLELEKVHELCDNFCHRYISCLKGKMPIDLVIDERDGSSKSDHEELSGSSTNLADHNPSSWRDHDDATSTHSAGTPGPSSGGHASQSGDNSSEQGDGLDNSVASPGTGDDDDPDKDKKRQKKRGIFPKVATNIMRAWLFQHLTHPYPSEEQKKQLAQDTGLTILQVNNWFINARRRIVQPMIDQSNRAVSQGAAYSPEGQPMGSFVLDGQQHMGIRPAGLQSMPGDYVSQGGPMGMSMAQPSYTPPQMTPHPTQLRHGPPMHSYLPSHPHHPAMMMHGGPPTHPGMTMSAQSPTMLNSVDPNVGGQVMDIHAQ [I151A]
2,decreasing interaction,MAQRYDELPHYGGMDGVGVPASMYGDPHAPRPIPPVHHLNHGPPLHATQHYGAHAPHPNVMPASMGSAVNDALKRDKDAIYGHPLFPLLALVFEKCELATCTPREPGVAGGDVCSSDSFNEDIAVFAKQVRAEKPLFSSNPELDNLMIQAIQVARFHLLELEKVHELCDNFCHRYISCLKGKMPIDLVIDERDGSSKSDHEELSGSSTNLADHNPSSWRDHDDATSTHSAGTPGPSSGGHASQSGDNSSEQGDGLDNSVASPGTGDDDDPDKDKKRQKKRGIFPKVATNIMRAWLFQHLTHPYPSEEQKKQLAQDTGLTILQVNNWFINARRRIVQPMIDQSNRAVSQGAAYSPEGQPMGSFVLDGQQHMGIRPAGLQSMPGDYVSQGGPMGMSMAQPSYTPPQMTPHPTQLRHGPPMHSYLPSHPHHPAMMMHGGPPTHPGMTMSAQSPTMLNSVDPNVGGQVMDIHAQ [L154A]

# Variants of: B1
# Conditions: with pbx1_human PBX1, P40424
# Remark: another data set of the same source
row,effect of a mutation on the interaction,Variant
1,decreasing interaction,MAQRYDELPHYGGMDGVGVPASMYGDPHAPRPIPPVHHLNHGPPLHATQHYGAHAPHPNVMPASMGSAVNDALKRDKDAIYGHPLFPLLALVFEKCELATCTPREPGVAGGDVCSSDSFNEDIAVFAKQVRAEKPLFSSNPELDNLMIQAIQVLRFHALELEKVHELCDNFCHRYISCLKGKMPIDLVIDERDGSSKSDHEELSGSSTNLADHNPSSWRDHDDATSTHSAGTPGPSSGGHASQSGDNSSEQGDGLDNSVASPGTGDDDDPDKDKKRQKKRGIFPKVATNIMRAWLFQHLTHPYPSEEQKKQLAQDTGLTILQVNNWFINARRRIVQPMIDQSNRAVSQGAAYSPEGQPMGSFVLDGQQHMGIRPAGLQSMPGDYVSQGGPMGMSMAQPSYTPPQMTPHPTQLRHGPPMHSYLPSHPHHPAMMMHGGPPTHPGMTMSAQSPTMLNSVDPNVGGQVMDIHAQ [L158A]

# Reference: IntAct's records for PubMed 20553494
